Patent US20240376185A1 (SMIVET B V, published 2024)
Numbering of substitutions follows the chain as printed.

B1: SVT13L (VHH)
VHH: QVQLQESGGGLVQAGGSLRLSCAVSGTNFDDYAIGWFRQAPGKRREAVACISKTDGVTRYGNGVKGRFTISSDEARNTVFLQMNDLKDEDTAIYYCIGDFKSCGMGYKPIDHWGRGIQVTVSS
B2: SVT08L (VHH)
VHH: QVQLQESGGGSVQAGGSLRLSCTASEFSYNDYTIAWFRRAAGKGRVEDGEGVASITTSYDRAYDNRIHYGDSVKGRFTISRDNAKNTVYLQMTNLNPSDTAVYYCGLDITPPGGIGASLTEGFLFDYWGQGTQVTVSS
B3: SVT06L (VHH)
VHH: QVQLQESGGGSVQAGGSLRLSCTASELSYDDYTIAWFRRAAGEGRVEDGEGVASITKSYDRAYDNKINYGHSVKGRFTISRDNAKNTVYLQMTDLLPSDTAVYYCALDITPPGGVGASLTEGFLFDYWGQGTQVTVSS
B4: SVT15L (VHH)
VHH: QVQLQESGGGLVQTGGSLRLSCRASGRAFANYHFGWFRQAPGKDREFVASISWKGGSTYYANFALGRFTSSVDRAESSVYLQMSGLTPEDTATYYCAAHDGGDWNYHTGMDYWGKGILVTVSS
B5: SVT15L-3FW4M (VHH)
VHH: B4 VHH with K115Q, I117T, L118Q

How the values were obtained:
[1] = target: T1, tetanus neurotoxin (TeNT), authentic tetanus holotoxin (Clostridium tetani, UniProt P04958 2-1315); experiment: GT1b-TeNT inhibition ELISA, EC at A450 0.59
Target sequence in this assay (P04958 2-457 limits assumed, chain 1 of 2): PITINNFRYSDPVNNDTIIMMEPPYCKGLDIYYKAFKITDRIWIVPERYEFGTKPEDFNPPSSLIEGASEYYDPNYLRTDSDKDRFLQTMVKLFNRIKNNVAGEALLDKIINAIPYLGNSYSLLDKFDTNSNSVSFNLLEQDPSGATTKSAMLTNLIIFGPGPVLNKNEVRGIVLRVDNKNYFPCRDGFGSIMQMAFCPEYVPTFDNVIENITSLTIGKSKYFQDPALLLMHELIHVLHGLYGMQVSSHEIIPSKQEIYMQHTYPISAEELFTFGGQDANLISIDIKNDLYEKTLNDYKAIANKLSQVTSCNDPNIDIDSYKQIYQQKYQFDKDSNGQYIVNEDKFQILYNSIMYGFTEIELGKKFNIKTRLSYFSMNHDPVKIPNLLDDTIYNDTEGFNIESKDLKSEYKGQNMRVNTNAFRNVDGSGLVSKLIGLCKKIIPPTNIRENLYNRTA
Target sequence in this assay (P04958 458-1315 limits assumed, chain 2 of 2): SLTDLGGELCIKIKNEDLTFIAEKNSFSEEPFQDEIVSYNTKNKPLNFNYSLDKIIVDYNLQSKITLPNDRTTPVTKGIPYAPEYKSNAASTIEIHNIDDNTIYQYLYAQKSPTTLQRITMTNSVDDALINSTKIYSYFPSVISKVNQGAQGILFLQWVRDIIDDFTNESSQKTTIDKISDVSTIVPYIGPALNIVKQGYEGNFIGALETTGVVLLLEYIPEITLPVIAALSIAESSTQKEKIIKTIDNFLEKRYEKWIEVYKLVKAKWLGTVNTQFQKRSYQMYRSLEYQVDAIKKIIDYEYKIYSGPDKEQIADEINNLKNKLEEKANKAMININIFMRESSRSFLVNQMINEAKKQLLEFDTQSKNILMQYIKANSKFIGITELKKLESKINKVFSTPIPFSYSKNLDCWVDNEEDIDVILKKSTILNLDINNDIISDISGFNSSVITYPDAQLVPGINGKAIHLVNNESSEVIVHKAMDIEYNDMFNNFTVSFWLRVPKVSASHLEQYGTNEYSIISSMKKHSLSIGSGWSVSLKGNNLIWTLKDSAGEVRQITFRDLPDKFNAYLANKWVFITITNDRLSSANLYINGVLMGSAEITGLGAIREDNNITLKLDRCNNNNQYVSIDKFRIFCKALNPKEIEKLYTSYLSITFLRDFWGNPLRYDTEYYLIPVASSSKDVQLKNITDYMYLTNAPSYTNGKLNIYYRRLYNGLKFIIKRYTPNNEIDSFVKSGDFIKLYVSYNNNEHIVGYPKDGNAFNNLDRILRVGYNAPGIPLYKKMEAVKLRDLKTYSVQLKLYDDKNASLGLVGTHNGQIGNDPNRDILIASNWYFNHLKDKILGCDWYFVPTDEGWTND

[2] = target: T1, tetanus neurotoxin (TeNT), authentic …; experiment: GT1b-TeNT inhibition ELISA, unlabelled binder
Target sequence in this assay (P04958 2-457 limits assumed, chain 1 of 2): as the sequence (P04958 2-457 limits assumed, chain 1 of 2) above
Target sequence in this assay (P04958 458-1315 limits assumed, chain 2 of 2): as the sequence (P04958 458-1315 limits assumed, chain 2 of 2) above

[3] = target: T1, tetanus neurotoxin (TeNT), authentic …; experiment: ELISA, directly coated TeNT, unlabelled binder
Target sequence in this assay (P04958 2-457 limits assumed, chain 1 of 2): as the sequence (P04958 2-457 limits assumed, chain 1 of 2) above
Target sequence in this assay (P04958 458-1315 limits assumed, chain 2 of 2): as the sequence (P04958 458-1315 limits assumed, chain 2 of 2) above

[4] = target: T2, recombinant tetanus toxin fragment C (rTTC) (Clostridium tetani, UniProt P04958 865-1315); experiment: ELISA, directly coated rTTC, unlabelled binder
T2 sequence: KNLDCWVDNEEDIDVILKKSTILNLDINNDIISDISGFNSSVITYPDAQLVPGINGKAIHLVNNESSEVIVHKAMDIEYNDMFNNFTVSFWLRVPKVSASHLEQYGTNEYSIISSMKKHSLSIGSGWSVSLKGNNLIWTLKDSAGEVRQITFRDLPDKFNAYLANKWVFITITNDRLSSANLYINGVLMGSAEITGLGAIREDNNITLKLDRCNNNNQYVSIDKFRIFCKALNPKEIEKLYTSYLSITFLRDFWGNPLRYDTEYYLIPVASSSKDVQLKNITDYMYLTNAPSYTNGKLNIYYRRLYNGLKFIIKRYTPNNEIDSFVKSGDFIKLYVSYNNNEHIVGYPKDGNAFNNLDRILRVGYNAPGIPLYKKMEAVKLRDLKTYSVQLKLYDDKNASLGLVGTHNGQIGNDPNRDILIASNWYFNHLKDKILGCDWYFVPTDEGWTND

[5] = target: T1, tetanus neurotoxin (TeNT), authentic …; experiment: ELISA, directly coated TeNT, biotinylated binder
Target sequence in this assay (P04958 2-457 limits assumed, chain 1 of 2): as the sequence (P04958 2-457 limits assumed, chain 1 of 2) above
Target sequence in this assay (P04958 458-1315 limits assumed, chain 2 of 2): as the sequence (P04958 458-1315 limits assumed, chain 2 of 2) above

[6] = target: T1, tetanus neurotoxin (TeNT), authentic …; experiment: ELISA, TeNT captured with cAb-TT2, unlabelled binder
Target sequence in this assay (P04958 2-457 limits assumed, chain 1 of 2): as the sequence (P04958 2-457 limits assumed, chain 1 of 2) above
Target sequence in this assay (P04958 458-1315 limits assumed, chain 2 of 2): as the sequence (P04958 458-1315 limits assumed, chain 2 of 2) above

[7] = target: T1, tetanus neurotoxin (TeNT), authentic …; experiment: ELISA, TeNT captured with cAb-TT2, biotinylated binder
Target sequence in this assay (P04958 2-457 limits assumed, chain 1 of 2): as the sequence (P04958 2-457 limits assumed, chain 1 of 2) above
Target sequence in this assay (P04958 458-1315 limits assumed, chain 2 of 2): as the sequence (P04958 458-1315 limits assumed, chain 2 of 2) above

[8] = target: T1, tetanus neurotoxin (TeNT), authentic …; experiment: competition ELISA on TeNT, binder biotinylated; competitor SVT02L
[9] = target: T1, tetanus neurotoxin (TeNT), authentic …; experiment: competition ELISA on TeNT, binder biotinylated; competitor SVT03L
[10] = target: T1, tetanus neurotoxin (TeNT), authentic …; experiment: competition ELISA on TeNT, binder biotinylated; competitor SVT06L
[11] = target: T1, tetanus neurotoxin (TeNT), authentic …; experiment: competition ELISA on TeNT, binder biotinylated; competitor SVT08L
[12] = target: T1, tetanus neurotoxin (TeNT), authentic …; experiment: competition ELISA on TeNT, binder biotinylated; competitor SVT13L
[13] = target: T1, tetanus neurotoxin (TeNT), authentic …; experiment: competition ELISA on TeNT, binder biotinylated; competitor SVT15L
[14] = target: T1, tetanus neurotoxin (TeNT), authentic …; experiment: competition ELISA on TeNT, binder biotinylated; competitor SVT16L
[15] = target: T1, tetanus neurotoxin (TeNT), authentic …; experiment: competition ELISA on TeNT, binder biotinylated; competitor SVT22L
[16] = target: T1, tetanus neurotoxin (TeNT), authentic …; experiment: competition ELISA on TeNT, binder biotinylated; competitor SVT34L
[17] = target: T1, tetanus neurotoxin (TeNT), authentic …; experiment: competition ELISA on TeNT, binder biotinylated; competitor mAb 6E7
[18] = target: T1, tetanus neurotoxin (TeNT), authentic …; experiment: competition ELISA on TeNT, binder biotinylated; competitor mAb 14F5
[19] = target: T1, tetanus neurotoxin (TeNT), authentic …; experiment: competition ELISA on TeNT, binder biotinylated; competitor mAb 6F57
[20] = target: T1, tetanus neurotoxin (TeNT), authentic …; experiment: competition ELISA on TeNT, binder biotinylated; competitor mAb 11n185
[21] = target: T1, tetanus neurotoxin (TeNT), authentic …; experiment: competition ELISA on TeNT, binder biotinylated; competitor SVT15L-3FW4M
[22] = target: T3, tetanus neurotoxin (TeNT), authentic tetanus holotoxin (Clostridium tetani, UniProt P04958 2-1315); experiment: GT1b-TeNT inhibition ELISA
[23] = target: T3, tetanus neurotoxin (TeNT), authentic …; experiment: GT1b-TeNT inhibition ELISA; remark: listed apart in the source
[24] = target: T3, tetanus neurotoxin (TeNT), authentic …; experiment: ELISA: directly coated TeNT, anti-his6 PO
[25] = target: T3, tetanus neurotoxin (TeNT), authentic …; experiment: ELISA: directly coated TeNT, anti-his6 PO; remark: listed apart in the source
[26] = target: T3, tetanus neurotoxin (TeNT), authentic …; experiment: ELISA: directly coated TeNT, goat anti-llama Ig PO
[27] = target: T3, tetanus neurotoxin (TeNT), authentic …; experiment: ELISA: directly coated TeNT, goat anti-llama Ig PO; remark: listed apart in the source
[28] = target: T3, tetanus neurotoxin (TeNT), authentic …; experiment: bridging ELISA: coated TeNT, SDA, biotinylated TeNT, StrepPO (bivalent binding)
[29] = target: T3, tetanus neurotoxin (TeNT), authentic …; experiment: as above; remark: listed apart in the source

Binder	concentration giving A450 of 0.59 [1]	minimal absorbance at 450 nm [2]	EC resulting in A450 0.2 [3]	maximal absorbance at 450 nm [3]	maximal absorbance at 450 nm [4]	EC resulting in A450 0.4 [5]	maximal absorbance at 450 nm [5]	EC resulting in A450 0.15 [6]	maximal absorbance at 450 nm [6]	EC resulting in A450 0.2 [7]	maximal absorbance at 450 nm [7]	% inhibition of binding [8]	% inhibition of binding [9]	% inhibition of binding [10]	% inhibition of binding [11]	% inhibition of binding [12]	% inhibition of binding [13]	% inhibition of binding [14]	% inhibition of binding [15]	% inhibition of binding [16]	further results
B1	0.082 µg/mL	0.126	1.9 ng/mL	1.54	1.1	0.57 ng/mL	1.48	4.1 ng/mL	0.487	1.3 ng/mL	1.06	7%	1%	1%	13%	95%	-19%	91%	92%	91%	% inhibition of binding [17]: 2%; % inhibition of binding [18]: 5%; % inhibition of binding [19]: 0%; % inhibition of binding [20]: 2%; % inhibition of binding [21]: 8%
B2	0.411 µg/mL	0.486	2.2 ng/mL	1.37	0.502	0.4 ng/mL	1.57	3.6 ng/mL	0.36	0.52 ng/mL	1.2	7%	0%	95%	96%	5%	6%	8%	6%	8%	% inhibition of binding [17]: 66%; % inhibition of binding [18]: 3%; % inhibition of binding [19]: 50%; % inhibition of binding [20]: 4%; % inhibition of binding [21]: 12%
B3	0.317 µg/mL	0.481	1.7 ng/mL	1.39	0.543	0.39 ng/mL	1.51	2.6 ng/mL	0.409	0.37 ng/mL	1.2	11%	-3%	96%	97%	7%	14%	-3%	3%	11%	% inhibition of binding [17]: 67%; % inhibition of binding [18]: 11%; % inhibition of binding [19]: 53%; % inhibition of binding [20]: 5%; % inhibition of binding [21]: 12%
B4	0.072 µg/mL	0.14	2.8 ng/mL	1.34	0.528	2.8 ng/mL	1.4	5.7 ng/mL	0.477	5.7 ng/mL	0.825	6%	-5%	1%	15%	2%	96%	5%	2%	10%	% inhibition of binding [17]: 6%; % inhibition of binding [18]: 7%; % inhibition of binding [19]: 4%; % inhibition of binding [20]: 0%; % inhibition of binding [21]: 96%
B5	–	–	–	–	–	–	–	–	–	–	–	–	–	–	–	–	–	–	–	–	minimal absorbance value (GT1b-TeNT inhibition) [22]: 0.19 A450; Effective SDA Concentration at A450 0.56 [23]: 31 ng/mL; maximal absorbance value [24]: 0.19 A450; Effective SDA Concentration at A450 0.15 [25]: 26 ng/mL; maximal absorbance value [26]: 0.35 A450; Effective SDA Concentration at A450 0.15 [27]: 6 ng/mL; maximal absorbance value [28]: 0.2 A450; Effective SDA Concentration at A450 0.3 [29]: > 1000 ng/mL
